Measurements as given in the supplement of paper PMC10567573.

B1: HDAC6 (parent)
chain: DLMETTQYMNEGELRVLADTYDSV
B2: KCNA3 (parent)
chain: YQSGGRIRRPVNVPIDIFSEEIRF

Variants of: B1
Test: protein stability index of a GFP-peptide fusion (GPS, HEK-293T) (PSI 1-6); higher = more stable
Conditions: c terminus: a fixed tail appended
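Also: lentivirally expressed fusions sorted by FACS into six bins by GFP to DsRed ratio, PSI derived from sequencing read proportions per bin multiplied by bin number.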

Protein stability index, by site and new letter:
D19: P 2.67; Q 1.92; R 2.56; S 2.12; T 1.83; Y 1.44
T20: A 2.49; D 2.83; E 2.41; F 2.27; H 2.71; I 2.91; K 1.96; L 1.04; M 1.62; N 2.21; P 1.99; Q 2.58; R 3.07; S 2.13; W 1.77; Y 2.06
Y21: A 2.69; C 2.2; D 3.31; F 2.24; G 2.66; H 1.72; I 1.79; K 2.74; L 1.96; M 1.44; N 1.61; P 2.04; Q 3.21; S 2.26; T 3.1; W 2
D22: A 1.27; C 2.18; E 1.57; F 1; G 1.76; H 2; I 2.16; K 1.75; L 2.14; N 1.48; P 1.92; Q 2.29; R 2.91; S 1.55; T 1.65; V 1.74; Y 2.7
S23: C 2.48; D 1.92; E 1.97; G 2.72; H 2.37; I 1.86; K 2.03; L 1.94; M 2.33; N 2.66; P 1.46; Q 1.24; R 2.14; T 2.05; V 1.63; W 3.46; Y 1.58
V24: A 1.73; C 1.42; D 2.41; E 2.01; F 1.92; G 2.1; H 2.78; I 2.34; K 1.77; L 2.11; M 2.24; N 2.77; P 2.11; Q 1.84; R 1.86; S 1.56; T 1.63; W 1.66; Y 1.49

Variants of: B2
Test: as above
Conditions: c terminus: a fixed tail appended

Protein stability index of substitutions, site by site:
Y1: A 3.31; C 2.49; D 3.1; E 2.74; F 1.83; G 2.83; H 2.98; I 2.53; K 2.77; L 2.08; M 2.42; N 2.89; P 3.43; Q 2.76; R 2.67; S 3.58; T 2.55; V 2.58; W 2.48
Q2: A 2.35; C 2.19; D 2.74; E 2.33; F 1.79; G 2.7; H 3.93; I 1.22; K 1.92; L 2.41; M 2.04; N 2.52; P 2.07; R 2.07; S 1.96; T 2.47; V 1.94; W 1.87; Y 2.46
S3: A 2.82; C 1.46; D 2.41; E 2.93; F 1.64; G 1.81; H 2.84; I 1.58; K 2.24; L 2.23; M 1.56; N 2.23; P 2.22; Q 2.44; R 2.59; T 2.06; V 2.01; W 2.27; Y 2.21
G4: A 1.69; C 1.93; D 2.07; E 2.73; F 1.83; H 1.97; I 2.06; K 2.82; L 2.31; M 2.1; N 1.92; P 2.21; Q 2.37; R 2.15; S 3.01; T 2.28; V 2.05; W 2; Y 1.79
